This note sets out measurements from publication PMC5871717, “Transposase-DNA Complex Structures Reveal Mechanisms for Conjugative Transposition of Antibiotic Resistance” (Cell, 2018).

Positions count from the first letter of the chain named. In names and notes the source's numbering stands.

Data set [1] has as its target T1, Int82N(R225K) (Enterococcus faecalis, UniProt Q7BP35 82-397, R225K).
T1 sequence: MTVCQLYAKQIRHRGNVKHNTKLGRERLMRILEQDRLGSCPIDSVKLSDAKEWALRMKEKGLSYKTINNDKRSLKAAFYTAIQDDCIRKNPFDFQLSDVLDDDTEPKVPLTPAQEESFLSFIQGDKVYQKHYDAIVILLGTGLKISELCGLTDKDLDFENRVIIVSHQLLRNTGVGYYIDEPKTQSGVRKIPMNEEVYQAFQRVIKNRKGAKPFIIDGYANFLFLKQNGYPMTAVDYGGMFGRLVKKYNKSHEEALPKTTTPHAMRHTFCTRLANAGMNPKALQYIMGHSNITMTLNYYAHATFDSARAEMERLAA
Description: X-ray crystallography; 2 protein:1 DNA; […] (50 mM HEPES pH 7.5, 250 mM NaCl, 5 mM DTT, 10% glycerol), […]. As to conditions: protein: recombinant, tags: 6xHis-SUMO removed by SenP2, extra N-terminal S81, chain copies: 2, terminal T/T mismatch as printed.

Data set [2] concerns the target 381C (Enterococcus faecalis, UniProt Q7BP35 82-381). Description: EMSA; monomeric and higher oligomers; […] (50 mM HEPES pH 7.5, 250 mM NaCl, 5 mM DTT, 10% glycerol), […]. The settings on record: protein: recombinant; tags: 6xHis-SUMO removed by SenP2; label: 5'-32P in EMSA; none in crystals; 44 bp; terminal T/T mismatch as printed.
Data set [3] has as its target 390C (Enterococcus faecalis, UniProt Q7BP35 82-390). Described as above. The settings on record: protein: recombinant; tags: 6xHis-SUMO removed by SenP2; label: 5'-32P in EMSA; none in crystals; 44 bp; terminal T/T mismatch as printed. For orientation: In EMSA bound probe runs differently from free probe, usually more slowly.
For data set [4], the target named is T2, Int82N (Enterococcus faecalis, UniProt Q7BP35 82-397).
T2 sequence: T1 sequence with K144R
Kind of data set: X-ray crystallography; wild-type catalytic residues; […] (50 mM HEPES pH 7.5, 250 mM NaCl, 5 mM DTT, 10% glycerol), […]. The settings on record: protein: recombinant; tags: 6xHis-SUMO removed by SenP2; extra N-terminal S81; chain copies: 2; label: 5'-32P in EMSA; none in crystals; 44 bp; terminal T/T mismatch as printed.

For data set [5], the target named is T2, Int82N. Description: 2AP fluorescence; base-flipping readout; […] (50 mM HEPES pH 7.5, 250 mM NaCl, 5 mM DTT, 10% glycerol), […]. The settings on record: protein: recombinant; tags: 6xHis-SUMO removed by SenP2; extra N-terminal S81; chain copies: 2; label: 2AP; 44 nt strands; 2AP opposite C at one flipped base; terminal T/T mismatch.
Data set [6] deals with T3, Int82N(Y379F) (Enterococcus faecalis, UniProt Q7BP35 82-397, Y379F).
T3 sequence: T1 sequence with K144R, Y298F
Kind of data set: X-ray crystallography; […] (50 mM HEPES pH 7.5, 250 mM NaCl, 5 mM DTT, 10% glycerol), […]. As to conditions: protein: recombinant; tags: 6xHis-SUMO removed by SenP2; 5' overhang 6 nt.

Data set [7] concerns the molecule itself. Kind of data set: crystal structure; Int^82N (R225K or wild type) with 44 bp CI5 dsDNA at 2:1 molar ratio in Buffer C; vapor diffusion at 20°C; 2.8 Å.
Data set [8] deals with the molecule itself. Kind of data set: SEC; analytical size exclusion chromatography on Superdex 200 10/300, proteins without DNA. In general terms: Size exclusion chromatography separates by hydrodynamic size, large species first.
The target of data set [9] is T4, Int82N (HJ-bound tetramer) (Enterococcus faecalis, UniProt Q7BP35 82-397).
T4 sequence: T1 sequence with K144R
Kind of data set: EMSA; 4:1 protein:HJ; […] (50 mM HEPES pH 7.5, 250 mM NaCl, 5 mM DTT, 10% glycerol), […]. The settings on record: protein: recombinant; tags: 6xHis-SUMO removed by SenP2; chain copies: 4; four-way junction of 4 strands.

The target of data set [10] is T2, Int82N. Description: EMSA; 2:1 complex; similar affinity to CI5; […] (50 mM HEPES pH 7.5, 250 mM NaCl, 5 mM DTT, 10% glycerol), […]. The settings on record: protein: recombinant; tags: 6xHis-SUMO removed by SenP2; extra N-terminal S81; chain copies: 2; 45 bp; terminal T/T mismatch as printed.

B1: CI5 (dsDNA)
DNA 1: TGCGATAACCTAAAATTTTATAGCAAAATTATATGGGATTTTAG
DNA 2: CTAAAATCCCATATAATTTTGCTATAAAATTTTAGGTTATCGCT
B1: the binding result was “binds” in data set [1] (label: 5'-32P in EMSA, none in crystals, 44 bp); “binds” in data set [2]; “binds” in data set [3]; “binds” in data set [4].

B2: CI5-F (dsDNA)
DNA 1: B1 DNA 1 with A20T, C24A
DNA 2: B1 DNA 2 with G21C, T25A
modifications: 2-aminopurine (written A) at position 24 of top and 25 of bottom strand
On to B2, for which, in data set [5], the binding signal is ~4.6 fold 2AP fluorescence increase.

B3: IRR half-site (dsDNA)
DNA 1: ATTTTCAAAATTATGGGATTTTAG
DNA 2: CTAAAATCCCATATAATTTT
For B3, the binding result in data set [6] is on record as “binds”.

B4: Int^82N(R225K), catalytic mutant of Tn1549 Int aa 82–397 (domain or fragment, Enterococcus faecalis)
chain: SMTVCQLYAKQIRHRGNVKHNTKLGRERLMRILEQDRLGSCPIDSVKLSDAKEWALRMKEKGLSYKTINNDKRSLKAAFYTAIQDDCIRKNPFDFQLSDVLDDDTEPKVPLTPAQEESFLSFIQGDKVYQKHYDAIVILLGTGLKISELCGLTDKDLDFENRVIIVSHQLLRNTGVGYYIDEPKTQSGVRKIPMNEEVYQAFQRVIKNRKGAKPFIIDGYANFLFLKQNGYPMTAVDYGGMFGRLVKKYNKSHEEALPKTTTPHAMRHTFCTRLANAGMNPKALQYIMGHSNITMTLNYYAHATFDSARAEMERLAA
notes: additional residue S81 left after SenP2 cleavage of the purification tags; Tn1549 integrase (Int), Enterococcus faecalis, GenBank AAF72368.1, aa 82-397, with R225K; Crystallised with CI5, CI6a and CI6b DNA; also called R225K Int^82N; not shown: His6, N-terminal, cleaved; SUMO, N-terminal, cleaved
Regarding B4, in [7], the binding result is on record as “binds”.

B5: Tn1549 Int variant lacking the AB domain (aa 82–397; Int^82N), wild type (domain or fragment, Enterococcus faecalis)
chain: B4 chain with K145R
notes: additional residue S81 left after SenP2 cleavage of the purification tags; Tn1549 integrase (Int), Enterococcus faecalis, GenBank AAF72368.1, aa 82-397 (CB and CAT domains, no AB domain); full length is aa 1-397; Codon-optimised synthetic gene in pETM28 (BamHI/XhoI); also called Int^82N(wt); Tn1549 integrase; not shown: His6, N-terminal, cleaved; SUMO, N-terminal, cleaved
Turning to B5, in [8], the “stoichiometry N” value is 2.

B6: HJ (EMSA) (structured_DNA)
DNA 1: AGTGAACAGCCCACAAAATTTTGAAAATAAAATTTTAGGTTATCGCTGGCTAGTCCATGC
DNA 2: GCATGGACTAGCCAGCGATAACCTAAAATTTTATTAATAAAATTATATGGGATTT
DNA 3: CCAAATTTTTTACCGGGTTTTGAATTCAAAATTTTGTGGGCTGTTCACT
DNA 4: AAATCCCATATAATTTTATTTTCAAAACCCGGTAAAAAATTTGG
For B6, in [9], the binding result is reported as “binds”.

B7: CI6a (dsDNA)
DNA 1: TGCGATAACCTAAAATTTTATTTTCAAAATTATATGGGATTTTAG
DNA 2: CTAAAATCCCATATAATTTTGAAAATAAAATTTTAGGTTATCGCT
For B7, the binding result in data set [1] (45 bp) and in data set [10] was “binds” throughout.

B8: CI6b (dsDNA)
DNA 1: B7 DNA 1 with A20C, T21C, T22C, C25T
DNA 2: B7 DNA 2 with G21A, A24G, A25G, T26G
Consider B8, for which the binding result in [1] (45 bp) and in [10] was “binds” throughout.

The term stoichiometry N denotes a count of units in the complex or per binding partner.
